EC50 data for three sequences are collected here from the supplement of paper PMC6379048.

Assay in all cases: EC50 of free RNA motif oligo competing protein binding to immobilised probe
The target in one data set is T1, ZGPAT (UniProt Q8N5A5).
T1 sequence: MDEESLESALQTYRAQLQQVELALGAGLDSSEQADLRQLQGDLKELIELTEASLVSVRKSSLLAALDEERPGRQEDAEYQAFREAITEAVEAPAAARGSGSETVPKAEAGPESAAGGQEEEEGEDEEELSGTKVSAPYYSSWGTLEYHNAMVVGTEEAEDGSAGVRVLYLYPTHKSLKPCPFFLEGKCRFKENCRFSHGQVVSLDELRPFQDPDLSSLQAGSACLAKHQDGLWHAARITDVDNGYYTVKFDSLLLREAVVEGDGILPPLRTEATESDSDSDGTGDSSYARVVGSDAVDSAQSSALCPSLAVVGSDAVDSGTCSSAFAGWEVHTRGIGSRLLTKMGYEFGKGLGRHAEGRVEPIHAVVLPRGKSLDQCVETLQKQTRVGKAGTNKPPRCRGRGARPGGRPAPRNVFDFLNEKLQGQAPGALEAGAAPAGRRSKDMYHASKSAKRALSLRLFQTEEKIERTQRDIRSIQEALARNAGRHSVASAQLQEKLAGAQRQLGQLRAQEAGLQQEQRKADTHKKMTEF
A digest of the protocol: (§1)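 Free RNA oligos (0 nM to 30 μM) competed for 1 h at 4°C in HEK293-FT lysate (2.5 mg protein/well) before a 30 min, 4°C pulldown with the same oligos on NHS-Sepharose beads. Bound proteins were quantified by label-free LC-MS/MS and normalised to the control. Kd was found by multiplying EC50, from a four-parameter log-logistic fit, by a protein-dependent depletion factor.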

For a further data set, the target named is T2, FUBP1 (UniProt Q96AE4).
T2 sequence: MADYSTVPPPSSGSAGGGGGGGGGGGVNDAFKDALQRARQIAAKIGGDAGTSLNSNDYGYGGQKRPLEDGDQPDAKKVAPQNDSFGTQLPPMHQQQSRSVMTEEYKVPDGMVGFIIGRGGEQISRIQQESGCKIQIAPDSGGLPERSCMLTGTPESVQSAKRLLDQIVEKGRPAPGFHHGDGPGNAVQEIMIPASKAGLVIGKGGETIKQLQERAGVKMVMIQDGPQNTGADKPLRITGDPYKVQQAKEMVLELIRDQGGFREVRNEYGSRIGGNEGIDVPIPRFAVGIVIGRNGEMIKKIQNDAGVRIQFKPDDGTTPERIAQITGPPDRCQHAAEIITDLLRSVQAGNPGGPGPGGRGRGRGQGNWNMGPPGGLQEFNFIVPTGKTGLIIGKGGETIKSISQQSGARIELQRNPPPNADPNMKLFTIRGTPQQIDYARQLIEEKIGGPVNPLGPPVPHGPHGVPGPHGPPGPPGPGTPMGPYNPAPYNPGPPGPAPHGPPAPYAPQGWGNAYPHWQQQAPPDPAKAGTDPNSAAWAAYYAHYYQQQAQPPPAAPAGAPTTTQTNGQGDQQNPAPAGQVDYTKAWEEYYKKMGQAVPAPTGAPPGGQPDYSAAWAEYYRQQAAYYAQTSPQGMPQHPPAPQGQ
A digest of the protocol:
as §1

The next data set addresses ICT1 (UniProt Q14197). In outline:
as §1

Another data set concerns the target PCBP1 (UniProt Q15365). A digest of the protocol: as §1
For a further data set, the target named is TTC37 (UniProt Q6PGP7). A digest of the protocol: as §1
Chain of TTC37 (Q6PGP7 whole entry): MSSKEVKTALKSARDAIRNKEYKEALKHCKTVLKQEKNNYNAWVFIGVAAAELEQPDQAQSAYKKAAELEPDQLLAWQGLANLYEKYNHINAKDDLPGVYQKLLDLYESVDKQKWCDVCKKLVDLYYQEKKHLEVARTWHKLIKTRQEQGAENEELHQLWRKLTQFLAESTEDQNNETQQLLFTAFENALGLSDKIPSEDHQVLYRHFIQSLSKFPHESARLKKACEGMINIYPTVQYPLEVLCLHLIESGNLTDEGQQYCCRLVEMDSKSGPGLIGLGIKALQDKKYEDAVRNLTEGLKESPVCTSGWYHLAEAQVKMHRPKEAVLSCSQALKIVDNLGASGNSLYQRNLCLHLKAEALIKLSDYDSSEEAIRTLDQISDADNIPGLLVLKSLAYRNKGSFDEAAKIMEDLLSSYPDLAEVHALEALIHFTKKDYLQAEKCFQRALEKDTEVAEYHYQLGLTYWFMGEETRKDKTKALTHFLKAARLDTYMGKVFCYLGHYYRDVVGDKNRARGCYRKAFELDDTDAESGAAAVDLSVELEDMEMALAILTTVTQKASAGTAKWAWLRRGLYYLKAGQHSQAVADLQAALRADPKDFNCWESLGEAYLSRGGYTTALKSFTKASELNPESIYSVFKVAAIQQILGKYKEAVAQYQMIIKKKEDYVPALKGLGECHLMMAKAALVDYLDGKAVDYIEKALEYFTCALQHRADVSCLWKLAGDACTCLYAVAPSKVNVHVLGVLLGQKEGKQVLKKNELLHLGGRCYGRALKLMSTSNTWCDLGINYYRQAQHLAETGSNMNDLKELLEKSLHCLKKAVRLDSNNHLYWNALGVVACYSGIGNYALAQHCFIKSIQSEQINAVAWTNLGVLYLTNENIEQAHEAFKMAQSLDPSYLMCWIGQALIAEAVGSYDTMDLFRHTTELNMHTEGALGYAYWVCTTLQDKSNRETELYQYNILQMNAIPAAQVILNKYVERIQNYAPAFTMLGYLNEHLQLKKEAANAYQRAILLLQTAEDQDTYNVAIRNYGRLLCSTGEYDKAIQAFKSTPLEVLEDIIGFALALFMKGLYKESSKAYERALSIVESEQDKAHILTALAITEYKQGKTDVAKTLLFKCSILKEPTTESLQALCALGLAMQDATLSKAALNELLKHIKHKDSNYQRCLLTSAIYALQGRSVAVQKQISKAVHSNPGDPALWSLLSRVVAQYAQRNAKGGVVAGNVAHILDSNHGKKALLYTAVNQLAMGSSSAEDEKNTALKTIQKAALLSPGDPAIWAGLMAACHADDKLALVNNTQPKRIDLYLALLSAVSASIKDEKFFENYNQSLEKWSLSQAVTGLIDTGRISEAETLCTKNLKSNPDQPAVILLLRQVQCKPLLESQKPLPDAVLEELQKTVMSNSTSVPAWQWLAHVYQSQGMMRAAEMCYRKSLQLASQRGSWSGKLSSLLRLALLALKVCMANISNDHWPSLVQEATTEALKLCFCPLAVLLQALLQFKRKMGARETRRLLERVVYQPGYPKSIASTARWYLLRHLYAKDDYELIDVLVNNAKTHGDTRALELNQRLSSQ
The target in the next data set is MRPS27 (UniProt Q92552). A digest of the protocol:
as §1

The next data set concerns the target T3, GRSF1 (UniProt Q12849).
T3 sequence: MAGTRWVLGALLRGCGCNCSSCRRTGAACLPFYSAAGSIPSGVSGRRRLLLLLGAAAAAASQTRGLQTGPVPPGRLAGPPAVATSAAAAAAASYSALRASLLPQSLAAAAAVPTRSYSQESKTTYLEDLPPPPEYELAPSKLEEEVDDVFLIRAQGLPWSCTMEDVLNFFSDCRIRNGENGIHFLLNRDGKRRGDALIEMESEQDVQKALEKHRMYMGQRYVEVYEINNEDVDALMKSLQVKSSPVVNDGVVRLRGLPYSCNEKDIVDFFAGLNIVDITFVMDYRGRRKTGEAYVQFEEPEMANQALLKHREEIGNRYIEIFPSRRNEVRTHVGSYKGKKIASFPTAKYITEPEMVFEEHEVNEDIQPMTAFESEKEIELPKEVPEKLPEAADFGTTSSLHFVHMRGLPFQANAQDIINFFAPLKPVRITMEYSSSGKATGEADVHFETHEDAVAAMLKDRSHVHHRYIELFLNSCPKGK
A digest of the protocol:
as §1

The next data set concerns the target CNBP (UniProt P62633). A digest of the protocol: as §1
The next data set addresses MRPS18B (UniProt Q9Y676). A digest of the protocol:
as §1

The term EC50 denotes the concentration needed to bring the measured effect to its halfway point. Low values mean a more potent agent, high ones a less potent agent.

Chain of CNBP (P62633 whole entry): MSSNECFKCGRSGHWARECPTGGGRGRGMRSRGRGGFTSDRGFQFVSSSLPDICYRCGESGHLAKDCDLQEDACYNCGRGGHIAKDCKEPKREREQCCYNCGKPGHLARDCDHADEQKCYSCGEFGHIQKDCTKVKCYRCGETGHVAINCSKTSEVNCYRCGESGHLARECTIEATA
Chain of PCBP1 (Q15365 whole entry): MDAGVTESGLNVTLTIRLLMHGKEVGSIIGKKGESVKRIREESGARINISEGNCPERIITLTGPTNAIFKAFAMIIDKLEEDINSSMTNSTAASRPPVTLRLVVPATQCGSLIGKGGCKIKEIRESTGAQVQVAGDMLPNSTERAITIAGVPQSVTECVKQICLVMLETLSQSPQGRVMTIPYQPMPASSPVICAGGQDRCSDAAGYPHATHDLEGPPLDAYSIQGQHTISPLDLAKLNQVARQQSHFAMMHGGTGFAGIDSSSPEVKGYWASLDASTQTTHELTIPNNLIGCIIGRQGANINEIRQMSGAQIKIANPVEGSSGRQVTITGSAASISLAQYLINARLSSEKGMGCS

AAUAAA: the concentration giving a half-maximal response (EC50) with ZGPAT came out at 9600 nM; in the data set with FUBP1, 5750 nM.
CUGUCCU: the values for the EC50 with ICT1 and with PCBP1 were 125 nM and 3360 nM, respectively.
UAUUUAU: the 50% effective concentration (EC50) with TTC37 stood at 947 nM; with MRPS27, 82.5 nM; with GRSF1 it was 18000 nM; with CNBP, 2240 nM; in the data set with MRPS18B, 51.4 nM.
